Data taken from patent US20090192084A1.
One block for each binder: values may come before it.

Assays:
p97-Myc = p97-Myc co-IP, 293 cells, MudPIT MS
Cullin 2 (human) [1] = target: Cullin 2 (human) (UniProt Q13617); assay: Flag co-IP, MudPIT MS, DMSO
Cullin 2 (human) [2] = target: Cullin 2 (human) (UniProt Q13617); assay: Flag co-IP, MudPIT MS, MG132
VCIP135 (human) = target: T1, VCIP135 (human) (UniProt Q96JH7); assay: Flag co-IP, 293 cells, MudPIT MS
T1 sequence (looked up): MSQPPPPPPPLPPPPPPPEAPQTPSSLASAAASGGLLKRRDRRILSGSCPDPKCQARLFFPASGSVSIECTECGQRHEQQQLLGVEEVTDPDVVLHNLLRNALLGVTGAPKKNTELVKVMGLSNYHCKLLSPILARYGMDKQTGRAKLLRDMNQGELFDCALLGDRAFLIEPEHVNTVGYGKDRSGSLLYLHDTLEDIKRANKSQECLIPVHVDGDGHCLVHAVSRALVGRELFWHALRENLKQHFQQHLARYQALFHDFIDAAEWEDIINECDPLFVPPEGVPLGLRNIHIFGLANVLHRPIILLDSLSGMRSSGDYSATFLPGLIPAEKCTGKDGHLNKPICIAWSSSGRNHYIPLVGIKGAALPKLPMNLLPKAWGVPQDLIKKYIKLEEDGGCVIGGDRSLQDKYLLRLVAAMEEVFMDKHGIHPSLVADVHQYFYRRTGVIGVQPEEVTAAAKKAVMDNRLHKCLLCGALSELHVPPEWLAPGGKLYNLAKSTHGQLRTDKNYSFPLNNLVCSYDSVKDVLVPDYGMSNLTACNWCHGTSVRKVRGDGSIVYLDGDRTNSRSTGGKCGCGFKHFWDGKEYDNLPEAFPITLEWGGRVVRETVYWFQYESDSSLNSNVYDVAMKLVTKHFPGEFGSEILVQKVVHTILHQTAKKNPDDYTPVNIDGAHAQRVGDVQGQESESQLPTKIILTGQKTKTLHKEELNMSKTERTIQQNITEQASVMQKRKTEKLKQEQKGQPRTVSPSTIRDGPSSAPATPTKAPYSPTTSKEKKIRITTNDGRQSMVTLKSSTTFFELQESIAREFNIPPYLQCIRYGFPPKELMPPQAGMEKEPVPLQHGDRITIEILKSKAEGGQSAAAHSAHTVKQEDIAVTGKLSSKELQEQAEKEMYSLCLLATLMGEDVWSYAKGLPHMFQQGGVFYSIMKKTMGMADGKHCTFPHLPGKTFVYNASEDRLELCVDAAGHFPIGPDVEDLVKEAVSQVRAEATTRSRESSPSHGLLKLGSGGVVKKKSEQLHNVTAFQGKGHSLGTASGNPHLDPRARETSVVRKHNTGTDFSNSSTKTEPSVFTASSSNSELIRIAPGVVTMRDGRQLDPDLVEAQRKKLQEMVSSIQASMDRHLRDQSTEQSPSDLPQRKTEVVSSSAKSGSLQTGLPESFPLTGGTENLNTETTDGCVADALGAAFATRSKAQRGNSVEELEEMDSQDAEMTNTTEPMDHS

endogenous p97 (human) = endogenous p97 (human) (UniProt P55072); assay: Flag co-IP, 293 cells, MudPIT MS
Sequence of endogenous p97 (human) (P55072 2-806 limits assumed): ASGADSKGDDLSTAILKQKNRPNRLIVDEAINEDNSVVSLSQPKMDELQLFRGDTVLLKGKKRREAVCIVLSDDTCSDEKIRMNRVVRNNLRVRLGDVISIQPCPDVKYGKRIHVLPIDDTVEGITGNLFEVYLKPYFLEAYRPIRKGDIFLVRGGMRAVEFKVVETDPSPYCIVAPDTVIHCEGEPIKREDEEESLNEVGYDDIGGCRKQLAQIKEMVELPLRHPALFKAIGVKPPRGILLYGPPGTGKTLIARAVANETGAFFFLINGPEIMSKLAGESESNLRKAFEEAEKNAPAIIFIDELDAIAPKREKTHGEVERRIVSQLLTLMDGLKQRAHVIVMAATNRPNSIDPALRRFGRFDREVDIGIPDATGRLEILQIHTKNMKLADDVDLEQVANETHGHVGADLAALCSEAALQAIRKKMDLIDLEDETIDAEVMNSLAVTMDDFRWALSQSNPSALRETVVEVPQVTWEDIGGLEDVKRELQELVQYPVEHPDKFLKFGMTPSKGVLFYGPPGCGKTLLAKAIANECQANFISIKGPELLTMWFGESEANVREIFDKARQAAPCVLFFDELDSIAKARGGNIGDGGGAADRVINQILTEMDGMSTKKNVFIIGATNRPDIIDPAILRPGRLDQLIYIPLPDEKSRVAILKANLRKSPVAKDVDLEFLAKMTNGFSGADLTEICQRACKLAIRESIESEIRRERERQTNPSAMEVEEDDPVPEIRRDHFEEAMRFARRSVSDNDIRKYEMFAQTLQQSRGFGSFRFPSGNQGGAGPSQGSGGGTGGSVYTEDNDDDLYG

endogenous UFD1 (human) = target: T2, endogenous UFD1 (human) (UniProt Q92890); assay: Flag co-IP, 293 cells, MudPIT MS
T2 sequence (looked up): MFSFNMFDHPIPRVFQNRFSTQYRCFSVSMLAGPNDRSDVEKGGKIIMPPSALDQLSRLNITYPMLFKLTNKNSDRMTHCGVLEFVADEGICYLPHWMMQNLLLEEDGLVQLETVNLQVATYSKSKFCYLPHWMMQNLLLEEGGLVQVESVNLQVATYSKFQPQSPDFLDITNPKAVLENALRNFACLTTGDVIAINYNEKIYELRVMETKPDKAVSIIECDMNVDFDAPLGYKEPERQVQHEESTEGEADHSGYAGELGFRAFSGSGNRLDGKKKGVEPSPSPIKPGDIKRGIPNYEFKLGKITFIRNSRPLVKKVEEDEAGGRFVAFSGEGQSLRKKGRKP

Sequence of p97-Myc (Q01853 2-806): as the sequence (P55072 2-806 limits assumed) above
Sequence of Cullin 2 (human) (Q13617 whole entry): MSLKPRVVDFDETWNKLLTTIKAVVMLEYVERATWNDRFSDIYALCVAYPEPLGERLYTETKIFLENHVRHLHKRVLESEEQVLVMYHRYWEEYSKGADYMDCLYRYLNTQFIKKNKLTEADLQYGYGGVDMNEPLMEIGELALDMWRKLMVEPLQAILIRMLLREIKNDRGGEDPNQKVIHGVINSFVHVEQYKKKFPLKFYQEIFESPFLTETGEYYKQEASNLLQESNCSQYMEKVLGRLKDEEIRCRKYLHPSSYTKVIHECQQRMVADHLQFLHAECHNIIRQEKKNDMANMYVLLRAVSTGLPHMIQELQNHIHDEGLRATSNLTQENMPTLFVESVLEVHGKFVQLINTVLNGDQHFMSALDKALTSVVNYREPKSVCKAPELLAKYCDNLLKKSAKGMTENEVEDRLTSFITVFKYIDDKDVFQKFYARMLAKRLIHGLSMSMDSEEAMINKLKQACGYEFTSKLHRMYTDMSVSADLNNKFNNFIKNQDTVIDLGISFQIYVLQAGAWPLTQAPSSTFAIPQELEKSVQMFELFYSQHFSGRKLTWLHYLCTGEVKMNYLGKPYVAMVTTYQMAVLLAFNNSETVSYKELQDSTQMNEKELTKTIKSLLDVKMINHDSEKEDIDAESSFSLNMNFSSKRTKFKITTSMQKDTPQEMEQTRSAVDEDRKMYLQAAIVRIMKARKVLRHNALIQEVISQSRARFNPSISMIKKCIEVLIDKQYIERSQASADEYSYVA

B1: endogenous UBXD4 (protein, human, UniProt P68543 1-259, looked up)
chain: MKDVDNLKSIKEEWVCETGSDNQPLGNNQQSNCEYFVDSLFEEAQKVSSKCVSPAEQKKQVDVNIKLWKNGFTVNDDFRSYSDGASQQFLNSIKKGELPSELQGIFDKEEVDVKVEDKKNEICLSTKPVFQPFSGQGHRLGSATPKIVSKAKNIEVENKNNLSAVPLNNLEPITNIQIWLANGKRIVQKFNITHRVSHIKDFIEKYQGSQRSPPFSLATALPVLRLLDETLTLEEADLQNAVIIQRLQKTASFRELSEH
sequence count (p97-Myc): 4
sequence coverage (p97-Myc): 19.3%
spectrum count (p97-Myc): 5

B3: Flag-UBXD8 (protein, UniProt Q96CS3 1-445, looked up, not shown: small tags and cut ends)
chain: MAAPEERDLTQEQTEKLLQFQDLTGIESMDQCRHTLEQHNWNIEAAVQDRLNEQEGVPSVFNPPPSRPLQVNTADHRIYSYVVSRPQPRGLLGWGYYLIMLPFRFTYYTILDIFRFALRFIRPDPRSRVTDPVGDIVSFMHSFEEKYGRAHPVFYQGTYSQALNDAKRELRFLLVYLHGDDHQDSDEFCRNTLCAPEVISLINTRMLFWACSTNKPEGYRVSQALRENTYPFLAMIMLKDRRMTVVGRLEGLIQPDDLINQLTFIMDANQTYLVSERLEREERNQTQVLRQQQDEAYLASLRADQEKERKKREERERKRRKEEEVQQQKLAEERRRQNLQEEKERKLECLPPEPSPDDPESVKIIFKLPNDSRVERRFHFSQSLTVIHDFLFSLKESPEKFQIEANFPRRVLPCIPSEEWPNPPTLQEAGLSHTEVLFVQDLTDE
abundance factor (AF) (Cullin 2 (human) [1]): 2.4
sequence count (Cullin 2 (human) [1]): 4
spectrum count (Cullin 2 (human) [1]): 12
abundance factor (AF) (Cullin 2 (human) [2]): 10.3
sequence count (Cullin 2 (human) [2]): 8
spectrum count (Cullin 2 (human) [2]): 38

B4: Flag-p47 (protein, UniProt O35987 1-370, looked up, not shown: small tags and cut ends)
chain: MAEERQDALREFVAVTGAEEDRARFFLESAGWDLQIALASFYEDGGDEDIVTISQATPSSVSRGTAPSDNRVTSFRDLIHDQDEEEEEEEGQRFYAGGSERSGQQIVGPPRKKSPNELVDDLFKGAKEHGAVAVERVTKSPGETSKPRPFAGGGYRLGAAPEEESAYVAGERRRHSGQDVHVVLKLWKTGFSLDNGDLRSYQDPSNAQFLESIRRGEVPAELRRLAHGGQVNLDMEDHRDEDFVKPKGAFKAFTGEGQKLGSTAPQVLNTSSPAQQAENEAKASSSILINEAEPTTNIQIRLADGGRLVQKFNHSHRISDIRLFIVDARPAMAATSFVLMTTFPNKELADENQTLKEANLLNAVIVQRLT
sequence count (VCIP135 (human)): 14
sequence coverage (VCIP135 (human)): 17.6%
spectrum count (VCIP135 (human)): 15

B7: endogenous UBXD8 (protein, human, UniProt Q96CS3 2-445, looked up)
chain: AAPEERDLTQEQTEKLLQFQDLTGIESMDQCRHTLEQHNWNIEAAVQDRLNEQEGVPSVFNPPPSRPLQVNTADHRIYSYVVSRPQPRGLLGWGYYLIMLPFRFTYYTILDIFRFALRFIRPDPRSRVTDPVGDIVSFMHSFEEKYGRAHPVFYQGTYSQALNDAKRELRFLLVYLHGDDHQDSDEFCRNTLCAPEVISLINTRMLFWACSTNKPEGYRVSQALRENTYPFLAMIMLKDRRMTVVGRLEGLIQPDDLINQLTFIMDANQTYLVSERLEREERNQTQVLRQQQDEAYLASLRADQEKERKKREERERKRRKEEEVQQQKLAEERRRQNLQEEKERKLECLPPEPSPDDPESVKIIFKLPNDSRVERRFHFSQSLTVIHDFLFSLKESPEKFQIEANFPRRVLPCIPSEEWPNPPTLQEAGLSHTEVLFVQDLTDE
sequence count (p97-Myc): 11
sequence coverage (p97-Myc): 33.7%
spectrum count (p97-Myc): 12

B9: endogenous p47 (protein, human, UniProt Q9UNZ2 1-370, looked up)
chain: MAAERQEALREFVAVTGAEEDRARFFLESAGWDLQIALASFYEDGGDEDIVTISQATPSSVSRGTAPSDNRVTSFRDLIHDQDEDEEEEEGQRFYAGGSERSGQQIVGPPRKKSPNELVDDLFKGAKEHGAVAVERVTKSPGETSKPRPFAGGGYRLGAAPEEESAYVAGEKRQHSSQDVHVVLKLWKSGFSLDNGELRSYQDPSNAQFLESIRRGEVPAELRRLAHGGQVNLDMEDHRDEDFVKPKGAFKAFTGEGQKLGSTAPQVLSTSSPAQQAENEAKASSSILIDESEPTTNIQIRLADGGRLVQKFNHSHRISDIRLFIVDARPAMAATSFILMTTFPNKELADESQTLKEANLLNAVIVQRLT
sequence count (p97-Myc): 19
sequence coverage (p97-Myc): 52.2%
spectrum count (p97-Myc): 153

Second part, the binder after the results:

sequence count (p97-Myc): 6
sequence coverage (p97-Myc): 32.3%
spectrum count (p97-Myc): 7
B2: endogenous p37 (protein, human, UniProt Q14CS0 2-331, looked up)
chain: AEGGGPEPGEQERRSSGPRPPSARDLQLALAELYEDEVKCKSSKSNRPKATVFKSPRTPPQRFYSSEHEYSGLNIVRPSTGKIVNELFKEAREHGAVPLNEATRASGDDKSKSFTGGGYRLGSSFCKRSEYIYGENQLQDVQILLKLWSNGFSLDDGELRPYNEPTNAQFLESVKRGEIPLELQRLVHGGQVNLDMEDHQDQEYIKPRLRFKAFSGEGQKLGSLTPEIVSTPSSPEEEDKSILNAVVLIDDSVPTTKIQIRLADGSRLIQRFNSTHRILDVRNFIVQSRPEFAALDFILVTSFPNKELTDESLTLLEADILNTVLLQQLK

sequence count (endogenous p97 (human)): 79
sequence coverage (endogenous p97 (human)): 70.4%
spectrum count (endogenous p97 (human)): 414
sequence count (VCIP135 (human)): 2
sequence coverage (VCIP135 (human)): 2.5%
spectrum count (VCIP135 (human)): 2
sequence count (endogenous UFD1 (human)): 14
sequence coverage (endogenous UFD1 (human)): 37.9%
spectrum count (endogenous UFD1 (human)): 22
B5: Flag-NPL4 (protein, UniProt Q8TAT6 2-608, looked up, species assumed)
Nuclear protein localization protein 4 homolog: AESIIIRVQSPDGVKRITATKRETAATFLKKVAKEFGFQNNGFSVYINRNKTGEITASSNKSLNLLKIKHGDLLFLFPSSLAGPSSEMETSVPPGFKVFGAPNVVEDEIDQYLSKQDGKIYRSRDPQLCRHGPLGKCVHCVPLEPFDEDYLNHLEPPVKHMSFHAYIRKLTGGADKGKFVALENISCKIKSGCEGHLPWPNGICTKCQPSAITLNRQKYRHVDNIMFENHTVADRFLDFWRKTGNQHFGYLYGRYTEHKDIPLGIRAEVAAIYEPPQIGTQNSLELLEDPKAEVVDEIAAKLGLRKVGWIFTDLVSEDTRKGTVRYSRNKDTYFLSSEECITAGDFQNKHPNMCRLSPDGHFGSKFVTAVATGGPDNQVHFEGYQVSNQCMALVRDECLLPCKDAPELGYAKESSSEQYVPDVFYKDVDKFGNEITQLARPLPVEYLIIDITTTFPKDPVYTFSISQNPFPIENRDVLGETQDFHSLATYLSQNTSSVFLDTISDFHLLLFLVTNEVMPLQDSISLLLEAVRTRNEELAQTWKRSEQWATIEQLCSTVGGQLPGLHEYGAVGGSTHTATAAMWACQHCTFMNQPGTGHCEMCSLPRT
modifications: N-terminal Flag tag

sequence count (p97-Myc): 2
sequence coverage (p97-Myc): 19.5%
spectrum count (p97-Myc): 2
B6: endogenous SAKS1 (protein, human, UniProt Q04323 2-297, looked up)
chain: AELTALESLIEMGFPRGRAEKALALTGNQGIEAAMDWLMEHEDDPDVDEPLETPLGHILGREPTSSEQGGLEGSGSAAGEGKPALSEEERQEQTKRMLELVAQKQREREEREEREALERERQRRRQGQELSAARQRLQEDEMRRAAEERRREKAEELAARQRVREKIERDKAERAKKYGGSVGSQPPPVAPEPGPVPSSPSQEPPTKREYDQCRIQVRLPDGTSLTQTFRAREQLAAVRLYVELHRGEELGGGQDPVQLLSGFPRRAFSEADMERPLQELGLVPSAVLIVAKKCPS

abundance factor (AF) (Cullin 2 (human) [1]): 3.7
sequence count (Cullin 2 (human) [1]): 3
spectrum count (Cullin 2 (human) [1]): 4
abundance factor (AF) (Cullin 2 (human) [2]): 5.5
sequence count (Cullin 2 (human) [2]): 4
spectrum count (Cullin 2 (human) [2]): 11
B8: Flag-SAKS1 (protein, UniProt Q04323 1-297, looked up, not shown: small tags and cut ends)
chain: MAELTALESLIEMGFPRGRAEKALALTGNQGIEAAMDWLMEHEDDPDVDEPLETPLGHILGREPTSSEQGGLEGSGSAAGEGKPALSEEERQEQTKRMLELVAQKQREREEREEREALERERQRRRQGQELSAARQRLQEDEMRRAAEERRREKAEELAARQRVREKIERDKAERAKKYGGSVGSQPPPVAPEPGPVPSSPSQEPPTKREYDQCRIQVRLPDGTSLTQTFRAREQLAAVRLYVELHRGEELGGGQDPVQLLSGFPRRAFSEADMERPLQELGLVPSAVLIVAKKCPS
